Laboratory results published in patent publication US20250333496A1 (Novo Nordisk, published 2025).

Experiments:
[1] = biological target: T1, human IL-6 (mature hIL-6) (human, UniProt P05231 30-212); experiment: cell-based or functional assay
[2] = biological target: T1, human IL-6 (mature hIL-6); experiment: SPR (format not stated)
[3] = biological target: T1, human IL-6 (mature hIL-6); experiment: cell-based or functional assay; remark: listed apart in the source

T1 sequence (P05231 30-212): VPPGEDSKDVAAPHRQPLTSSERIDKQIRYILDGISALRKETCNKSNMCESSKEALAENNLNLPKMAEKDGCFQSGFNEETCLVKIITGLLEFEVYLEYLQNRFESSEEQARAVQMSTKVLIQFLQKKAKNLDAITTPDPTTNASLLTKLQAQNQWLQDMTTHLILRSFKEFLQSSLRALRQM

Binder	Reporter gene-assay [pM] [1]	Kd [2]	IC 50 (nM), reporter gene assay, 0% HSA [3]	IC 50 (nM), reporter gene assay, 1% HSA [3]
Polypeptide_15 (VHH, VHH_2.15 with C-terminal His tag extension E1; also called [VHH_2.15]-E1) VHH: QVQLQESGGGLVQAGGSLRLSCTASGGTFSEYAMAWFRQAPGKEREFVTDIGESGGTWYADSVKGRFTISRDNAKNTVYLQMNSLRPEDTAVYYCAADSYGVGGGAERYYDSWGQGTQVTVSS	16.8 pM	0.001 nM		
Polypeptide_35 (VHH, VHH_1.10 with C-terminal His tag extension E1; also called [VHH_1.10]-E1) VHH: QVQLVESGGGLVQAGGSLRLSCTASGGTFGEYAMAWFRQAPGKEREFVTDIGESGGTWYADSVKGRFTISRDNAKNTVYLQMNSLRPEDTAVYYCAADSYGVGGGAERYYDSWGQGTQVTVSS	24.6 pM	0.001 nM		
Polypeptide_8 (VHH, VHH_2.8 with C-terminal His tag extension E1; also called [VHH_2.8]-E1) VHH: QVQLVESGGGLVQPGGSLRLSCAASGFTFSSYWMYWVRQAPGKGLEWVSGINTGGSTPDYADSVKGRFTISRDNAKNTLYLQMNSLRPEDTAVYYCAADTPRSFRLNHYSPLGQGTQVTVSS	36.8 pM	0.816 nM		
Polypeptide_2 (VHH, VHH_2.2 with C-terminal His tag extension E1; also called [VHH_2.2]-E1) VHH: EVQLVESGGGLVQPGGSLRLSCAASGFTFSNYWMYWVRQAPGKGLEWVSGINTGGSTPDYADSVKDRFTISRDNAKNTLYLQMNSLRPADTAVYYCAADTPRSFRLNHYAPLGQGTQVTVSS	20.7 pM	1.31 nM		
Polypeptide_18 (VHH, VHH_1.16 with C-terminal His tag extension E1; also called [VHH_1.16]-E1) VHH: EVQLVESGGGLVQPGGSLRLSCAASGFTFSNYWMYWVRQAPGKGLEWVSGINTGGSTPDYADSVKGRFAISRDNAKNTLYLQMNSLRPEDTAVYYCAADTPRVFRLDHYSPLGQGTQVTVSS	18.5 pM	0.705 nM	0.02 nM	0.02 nM
Polypeptide_9 (VHH, VHH_2.9 with C-terminal His tag extension E1; also called [VHH_2.9]-E1) VHH: QVQLVESGGGLVQPGGSLRLSCAASGFTFSNYWMYWVRQAPGKGLEWVSGIDTRGSTPDYADSVKGRFTISRDNAKSTFYLQMNSLRPEDTAVYYCATDTPRSFRLYHYVPLGQGTQVTVSS	33.7 pM	0.903 nM		
Polypeptide_5 (VHH, VHH_2.5 with C-terminal His tag extension E1; also called [VHH_2.5]-E1) VHH: QLQLVESGGGLVQPGGSLRLSCAASGFTFSNYWMYWVRQAPGKGLEWVSGINTGGSTPDYADSVKGRFTISRDNAKNTLYLQMNSLRPEDTAVYYCAADTPRVFRLDHYSPLGQGTQVTVSS	23.2 pM	0.696 nM		
Polypeptide_12 (VHH, VHH_2.12 with C-terminal His tag extension E1; also called [VHH_2.12]-E1) VHH: QVQLVESGGGLVQAGGSLRLSCTTSGRTFSSYAMAWFRQAPGKDREFVADIGENSDNIWYADSVKGRFTISRDNAKNTILLQMNSLKPEDTAVYYCAADSYGVGGGKPEYYDSWGQGAQVTVSS	77.4 pM	0.001 nM		
Polypeptide_6 (VHH, VHH_2.6 with C-terminal His tag extension E1; also called [VHH_2.6]-E1) VHH: QVQLQESGGGLVQAGGSLRLSCTTSGRTFSDYAMAWFRQAPGKDREFVADIGTNSENTWYAESVKGRFTISRDNTKNTIYLQMNSLKPEDTAVYYCAADSYGVGGGKQEYYDSWGQGAQVTVSS	73.4 pM	1.52 nM		
Polypeptide_10 (VHH, VHH_2.10 with C-terminal His tag extension E1; also called [VHH_2.10]-E1) VHH: QVQLQESGGGLVQAGGSLRLSCTVSGRTFSTYAMGWFRQAPGKEREFVADINWNSDNIWYADSVKGRFTISRDNAKNVMYLQMNSLKPEDTAVYYCAADSYGVGGGKEEYYDSWGQGTQVTVSS	114 pM	1.03 nM		
Polypeptide_17 (VHH, VHH_2.17 with C-terminal His tag extension E1; also called [VHH_2.17]-E1) VHH: QVQLVESGGGLVQAGGSLRLSCTVSGRTFSTYAMGWFRQAPGKEREFVADINWNSDNIWYADSVKGRFTISRDNAKNVMYLQMNSLKPEDTAVYYCAADSYGVGGGKEEYYDSWGQGTQVTVSS	84.1 pM	0.257 nM		
Polypeptide_4 (VHH, VHH_2.4 with C-terminal His tag extension E1; also called [VHH_2.4]-E1) VHH: QVQLQESGGGLVQAGGSLRLSCTVSGRTFSTYAMGWFRQAPGKEREFVADINWNSDNLWYADSVKGRFTISRDNAKNTMYLQMNSLKPEDTAVYYCAVDSYGVGGGKPEYYDSWGQGTQVTVSS	198 pM	1.46 nM		
Polypeptide_13 (VHH, VHH_2.13 with C-terminal His tag extension E1; also called [VHH_2.13]-E1) VHH: EVQLVESGGGLVQAGGPLRLSCTVSGRTFSTYAMGWFRQAPGKEREFVADINWNSDNIWYADSVKGRFTISRDNAKNVMYLQMNSLKPEDTAVYYCAADSYGVGGGKEEYYDSWGQGTQVTVSS	80.9 pM	0.001 nM		
Polypeptide_1 (VHH, VHH_2.1 with C-terminal His tag extension E1; also called [VHH_2.1]-E1) VHH: QVQLVESGGDLVQPGGSLRLSCTTSGRTFSSYAMGWFRQAPGKEREFVADIGENADNRWYAHSVKGRFTISRDNAKNTVYLQMNSLKPEDTAVYYCAADRYGVGGGAQGYYDSWGQGTQVTVSS	47.4 pM	0.627 nM		
Polypeptide_33 (VHH, VHH_1.9 with C-terminal His tag extension E1; also called [VHH_1.9]-E1) VHH: EVQLVESGGGLVQPGGSLRLSCTTSGRTFSSYAVGWFRQAPGKEREFVADIGENADNTWYAHSVKGRFTISRDNAKNTVYLQMNSLKPEDTAVYYCAADSYGVGGGAQGYYDSWGQGTQVTVSS	62.1 pM	0.358 nM		
Polypeptide_14 (VHH, VHH_2.14 with C-terminal His tag extension E1; also called [VHH_2.14]-E1) VHH: QLQLVESGGGSVQVGDSLRLSCTFSGRSFSSYAMGWFRQAPGKEREFVADIGENADNTWYAHSVKGRFTISRDNAKNTVYLQMNSLKPEDTAVYYCAADSYGVGGGAQGYYDSWGQGTQVTVSS	72.9 pM	0.396 nM		
Polypeptide_7 (VHH, VHH_2.7 with C-terminal His tag extension E1; also called [VHH_2.7]-E1) VHH: EVQLVESGGRWVQPGASLRLSCTTSGRTFSSYAMGWFRQAPGKEREFVADIGENADNRWYAHSVKGRFTISRDNAKNTVYLQMNSLKPEDTAVYYCAADRYGVGGGAQGYYDSWGQGTQVTVSS	42.1 pM	0.631 nM		
Polypeptide_16 (VHH, VHH_2.16 with C-terminal His tag extension E1; also called [VHH_2.16]-E1) VHH: EVQLVESGGGLVQPGGSLSLSCTASGRTFSSYAMGWFRQAPGKEREFVADIGENADNRWYAHSVKGRFTISRDNAKNTVYLQMNSLKPEDTAVYYCAADRYGVGGGAQGYYDSWGQGTQVTVSS	52.4 pM	0.001 nM		
Polypeptide_11 (VHH, VHH_2.11 with C-terminal His tag extension E1; also called [VHH_2.11]-E1) VHH: EVQLVESGGGLVQAGGSLRLSCTASGRSFSSYAMGWFRQAPGKEREFVADIGVNPDNTWYADSAKGRFTISRDNAKNTMYLQMNSLKPEDTAVYYCAADSYGVGGGAERYYDSWGQGTQVTVSS	98.2 pM	0.0701 nM		
